Assay results reported in patent publication US20040126860.

Biological target: purified complex of human cardiac RLC, human ventricular ELC and the β-myosin heavy chain light chain binding fragment (aa778-840), P10916
Sequence (P10916 2-166, chain 1 of 3): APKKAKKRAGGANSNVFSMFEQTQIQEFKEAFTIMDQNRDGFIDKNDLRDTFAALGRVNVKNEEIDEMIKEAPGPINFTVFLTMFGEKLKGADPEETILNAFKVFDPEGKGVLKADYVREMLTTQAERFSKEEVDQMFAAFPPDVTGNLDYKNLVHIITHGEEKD
Sequence (chain, as listed by the source, chain 2 of 3): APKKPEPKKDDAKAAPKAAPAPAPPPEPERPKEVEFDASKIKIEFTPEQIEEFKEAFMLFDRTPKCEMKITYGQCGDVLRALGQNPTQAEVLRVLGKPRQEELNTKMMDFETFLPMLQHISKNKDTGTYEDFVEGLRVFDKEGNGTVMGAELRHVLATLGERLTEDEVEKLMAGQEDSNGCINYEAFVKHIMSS
Sequence (chain, as listed by the source, chain 3 of 3): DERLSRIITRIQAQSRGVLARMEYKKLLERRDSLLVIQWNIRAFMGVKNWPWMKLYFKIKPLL

| Protein | K, (printed so; presumably Km) [µM] | Vmax (pmoles min^-1 ng^-1) |
| --- | --- | --- |
| mutant human cMLCK (ala 87 val, ala 95 glu), full length, with amino-terminal FLAG tag (protein) MATENGAVELGIQNPSTDKAPKGPTGERPLAAGKDPGPPDPKKAPDPPTLKKDAKAPASEKGDGTLAQPSTSSQGPKGEGDRGGGPVEGSAGPPEALPQQTATPETSVKKPKAEQGASGSQDPGKPRVGKKAAEGQAAARRGSPAFLHSPSCPAIISSSEKLLAKKPPSEASELTFEGVPMTHSPTDPRPAKAEEGKNILAESQKEVGEKTPGQAGQAKMQGDTSRGIEFQAVPSEKSEVGQALCLTAREEDCFQILDDCPPPPAPFPHRMVELRTGNVSSEFSMNSKEALGGGKFGAVCTCMEKATGLKLAAKVIKKQTPKDKEMVLLEIEVMNQLNHRNLIQLYAAIETPHEIVLFMEYIEGGELFERIVDEDYHLTEVDTMVFVRQICDGILFMHKMRVLHLDLKPENILCVNTTGHLVKIIDFGLARRYNPNEKLKVNFGTPEFLSPEVVNYDQISDKTDMWSMGVITYMLLSGLSPFLGDDDTETLNNVLSGNWYFDEETFEAVSDEAKDFVSNLIVKDQRARMNAAQCLAHPWLNNLAEKAKRCNRRLKSQILLKKYLMKRRWKKNFIAVSAANRFKKISSSGALMALGV | 17 | 216 |
| human cardiac myosin light chain kinase (cMLCK), full length, wild type, with amino-terminal FLAG tag (protein) MATENGAVELGIQNPSTDKAPKGPTGERPLAAGKDPGPPDPKKAPDPPTLKKDAKAPASEKGDGTLAQPSTSSQGPKGEGDRGGGPAEGSAGPPAALPQQTATPETSVKKPKAEQGASGSQDPGKPRVGKKAAEGQAAARRGSPAFLHSPSCPAIISSSEKLLAKKPPSEASELTFEGVPMTHSPTDPRPAKAEEGKNILAESQKEVGEKTPGQAGQAKMQGDTSRGIEFQAVPSEKSEVGQALCLTAREEDCFQILDDCPPPPAPFPHRMVELRTGNVSSEFSMNSKEALGGGKFGAVCTCMEKATGLKLAAKVIKKQTPKDKEMVLLEIEVMNQLNHRNLIQLYAAIETPHEIVLFMEYIEGGELFERIVDEDYHLTEVDTMVFVRQICDGILFMHKMRVLHLDLKPENILCVNTTGHLVKIIDFGLARRYNPNEKLKVNFGTPEFLSPEVVNYDQISDKTDMWSMGVITYMLLSGLSPFLGDDDTETLNNVLSGNWYFDEETFEAVSDEAKDFVSNLIVKDQRARMNAAQCLAHPWLNNLAEKAKRCNRRLKSQILLKKYLMKRRWKKNFIAVSAANRFKKISSSGALMALGV | 6 | 115 |
